Test results as given in US20240327517A1 (SUZHOU SMARTNUCLIDE BIOPHARMACEUTICAL, published 2024).
Changes are numbered by the printed parent chain. Names may count otherwise.

B1: C37 single-domain antibody (untagged) (VHH)
VHH: QLQLVESGGGLVQAGGSLRLSCAASGLTFEDYAIGWFRQAPGKEREGISCIRIYDGNTYSAESVKGRFTISSDNAKNQVYLQINTLKPEDTAVYYCAAGSYYSCSVYPDYDMDYWGKGTLVTVSS
notes: The untagged construct was expressed in HEK293 and used in the Protein A test; also called C37 antibody
B2: C37-ST-YS (VHH)
VHH: B1 VHH with S60Y, T85S
notes: Mutant of section 1.1 (Protein A test); No tag is mentioned for this section
B3: C37-S60Y (VHH)
VHH: B1 VHH with S60Y
notes: as for B2
B4: C37-YDMS (VHH)
VHH: B1 VHH with S60Y, E62D, I83M, T85S
notes: as for B2
B5: C37-YDS (VHH)
VHH: B1 VHH with S60Y, E62D, T85S
notes: as for B2
B6: C37-YMS (VHH)
VHH: B1 VHH with S60Y, I83M, T85S
notes: as for B2
B7: C37-H3 (humanized variant of C37-F1) (VHH)
VHH: QVQLVESGGGLVQPGGSLRLSCAASGLTFSDYAIGWFRQAPGKEREGISCIRIYDGNTYYADSVKGRFTISRDNAKNHVYLQMNSLRAEDTAVYYCAAGSYYSCSVYPAYDLDYWGKGTLVTVSS
B8: C37-H4 (humanized variant of C37-F1) (VHH)
VHH: B7 VHH with A75S, R87K, A88P
B9: C37H (humanized variant of C37-F1) (VHH)
VHH: B7 VHH with A75S
B10: C37-H1 (humanized variant of C37-F1) (VHH)
VHH: B7 VHH with N57R, A75S, K117Q
B11: C37-H2 (humanized variant of C37-F1) (VHH)
VHH: B7 VHH with G56R, A75S, K117Q
B12: C37-S72R (histidine-tagged) (VHH)
VHH: B1 VHH with S72R
notes: not shown: histidine tag
B13: C37-D31Y (histidine-tagged) (VHH)
VHH: B1 VHH with D31Y
notes: not shown: histidine tag
B14: C37-D109A (histidine-tagged) (VHH)
VHH: B1 VHH with D109A
notes: not shown: histidine tag
B15: C37-D111A (histidine-tagged) (VHH)
VHH: B1 VHH with D111A
notes: not shown: histidine tag
B16: C37-E30S (histidine-tagged) (VHH)
VHH: B1 VHH with E30S
notes: not shown: histidine tag
B17: C37-KL-QQ (histidine-tagged) (VHH)
VHH: B1 VHH with K117Q, L120Q
notes: not shown: histidine tag
B18: C37-M112L (histidine-tagged) (VHH)
VHH: B1 VHH with M112L
notes: not shown: histidine tag
B19: C37-RA (histidine-tagged) (VHH)
VHH: B1 VHH with S72R, D109A
notes: not shown: histidine tag
B20: C37-RSA (histidine-tagged) (VHH)
VHH: B1 VHH with S72R, T85S, D109A
notes: not shown: histidine tag
B21: C37-SA (histidine-tagged) (VHH)
VHH: B1 VHH with T85S, D109A
notes: not shown: histidine tag
B22: C37-SR (histidine-tagged) (VHH)
VHH: B1 VHH with E30S, S72R
notes: not shown: histidine tag
B23: C37-SRA (histidine-tagged) (VHH)
VHH: B1 VHH with E30S, S72R, D109A
notes: not shown: histidine tag
B24: C37-SRS (histidine-tagged) (VHH)
VHH: B1 VHH with E30S, S72R, T85S
notes: not shown: histidine tag
B25: C37-T85S (histidine-tagged, section 1.2) (VHH)
VHH: B1 VHH with T85S
notes: not shown: histidine tag
B26: C37-TMS (histidine-tagged) (VHH)
VHH: B1 VHH with Q78T, I83M, T85S
notes: not shown: histidine tag

molecular target: T1, PROTEIN A (packing of the PROTEIN A affinity chromatography) (UniProt P38507 37-327, limits assumed); assay: Protein A affinity chromatography of HEK293-expressed protein, SDS-PAGE of fractions
Text: After preliminary screening and identification, C37-cHis was selected as a final antibody sequence (including a histidine tag) from candidate antibodies, and meanwhile, an untagged recombinant plasmid C37 was constructed. HEK293 cells were transfected with the single-domain antibody C37 fusion protein plasmid constructed by the above recombination for expression of an antibody. […] Therefore, it was necessary to optimize the sequence of the C37 antibody to allow purification of the C37 antibody by affinity chromatography.
The recombinant plasmid C37 and the mutated recombinant plasmid C37-YDHMS were subjected to antibody expression via the HEK293 cells, respectively, and purification was conducted by means of the packing of the PROTEIN A affinity chromatography, in order to verify the binding to the affinity packing after the mutations.

Binder | binding result
B1 | no binding

molecular target: T1, PROTEIN A (packing of the PROTEIN A …); assay: binding to the Protein A affinity packing

Binder | binding result
B2 | no binding
B3 | no binding
B4 | no binding
B5 | no binding
B6 | no binding

molecular target: T2, CD8α Fc fusion protein (UniProt P01732 22-182, limits assumed); assay: affinity detection of humanized variants (method not restated; taken as the CD8α Fc ELISA of section 1.2); relative to C37-F1
T2 construct: Used as the coating antigen of the ELISAs; also called CD8α antigen; CD8α protein; not shown: Fc part
T2 sequence (P01732 22-182 limits assumed): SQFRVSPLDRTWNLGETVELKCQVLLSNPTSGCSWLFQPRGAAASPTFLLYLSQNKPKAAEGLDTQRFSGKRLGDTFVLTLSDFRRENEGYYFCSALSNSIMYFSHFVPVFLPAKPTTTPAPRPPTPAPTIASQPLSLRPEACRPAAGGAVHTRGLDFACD
Description: (§1) After washing, an anti-His horseradish peroxidase-labeled antibody was added to allow reaction for 1 hour at room temperature. After washing, a chromogenic solution was added, and an absorption value was read at a wavelength of 450 nm. The software SotfMaxPro v5.4 was used for data processing and diagraph analysis; four-parameter fitting was performed to obtain the binding curve of the mutated antibody to CD8α; and different mutants were compared in relative activity with the C37 antibody as a control, in order to reflect the affinity of the antibody to CD8α.

Binder | Relative activity (%)
B7 | 171
B8 | 141
B9 | 151
B10 | 110
B11 | 122

molecular target: T2, CD8α Fc fusion protein; assay: ELISA, plate coated with CD8α Fc fusion protein, anti-His-HRP detection, 4-parameter fit; relative to C37
Text: The expression level and binding activity of each mutant were separately detected. For the sake of detection, a histidine-tagged recombinant plasmid was used in this section for transient transfection, after which a recombinant protein was purified by affinity chromatography with a corresponding Ni+ resin gel, thereby obtaining a protein of interest for direct use in the detection of expression level and binding activity.
as §1

Binder | Relative activity (%)
B12 | 115
B13 | 48.4
B14 | 476
B15 | 84.6
B16 | 126
B17 | 141
B18 | 206
B19 | 108
B20 | 103
B21 | 257
B22 | 42
B23 | 40
B24 | 33
B25 | 162
B26 | 107
